T1: KaiA (Synechococcus elongatus, UniProt Q79PF6 1-284)
T1 construct: KaiA, circadian clock protein of Synechococcus elongatus; source: expressed and purified as previously described (Phong et al, 2013); anion exchange on HiTrap Q columns
T1 sequence (looked up): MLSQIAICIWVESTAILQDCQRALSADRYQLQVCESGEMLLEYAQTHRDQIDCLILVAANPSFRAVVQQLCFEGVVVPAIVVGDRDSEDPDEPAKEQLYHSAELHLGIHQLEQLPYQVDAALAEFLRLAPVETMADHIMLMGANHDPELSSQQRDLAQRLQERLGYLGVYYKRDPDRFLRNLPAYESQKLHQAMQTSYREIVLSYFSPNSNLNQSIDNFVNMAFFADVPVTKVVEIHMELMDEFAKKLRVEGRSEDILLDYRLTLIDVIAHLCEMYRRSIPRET


Assays:
[1] = biological target: T1, KaiA; test: co-IP; in vitro KaiABC clock reaction of purified proteins (KaiC present), time course; KaiB-FLAG precipitated with monoclonal anti-FLAG M2 antibody, eluted with 3xFLAG peptide; KaiA left in the supernatant quantified by SDS-PAGE (SYPRO Ruby) against 1.5 uM GFP as internal standard; settings: both partners purified
[2] = biological target: the molecule itself; test: SEC; Superdex 75 1660 prep grade column, step of the purification after Ni-NTA

| binding result [1] | Binder | stoichiometry N [2] |
| --- | --- | --- |
| binds | KaiB-FLAG (natural protein, Synechococcus elongatus, UniProt Q79PF5 1-102, looked up, KaiB, circadian clock protein of Synechococcus elongatus; also called FLAG-tagged KaiB; source: expressed and purified as previously described (Phong et al, 2013); anion exchange on HiTrap Q columns) MSPRKTYILKLYVAGNTPNSVRALKTLKNILEVEFQGVYALKVIDVLKNPQLAEEDKILATPTLAKVLPLPVRRIIGDLSDREKVLIGLDLLYGELQDSDDF |  |
|  | C-terminal domain of KaiA (residues 181-284) (domain or fragment, Synechococcus elongatus, UniProt Q79PF6 181-284, looked up, KaiA of Synechococcus elongatus, C-terminal domain, residues 181-284; Uniformly 15N labelled, grown in deuterated water, for NMR; Purified as described in Chang et al, 2011, 2012; Tseng et al, 2014; also called C-terminal KaiA; source: E. coli BL21(DE3), M9 media with 15N NH4Cl in 98% D2O, purified (Ni-NTA, SEC on Superdex 75)) NLPAYESQKLHQAMQTSYREIVLSYFSPNSNLNQSIDNFVNMAFFADVPVTKVVEIHMELMDEFAKKLRVEGRSEDILLDYRLTLIDVIAHLCEMYRRSIPRET | 2 |
